Tested on: C57BL/6JNarl mice
Test: Hepatic triglycerides after 7 weeks of lactoferrin, chromium or lactoferrin+chromium in high-fat-diet mice
Type: in vivo
Conditions: 10 mice in each group
Method: Male C57BL/6JNarl mice (n=70) fed with high fat diet (high-fat Rodent TestDiet, PMI International Inc., MO, USA; 67% of calories provided by fat), age 8 weeks, are randomly divided into the control group, the low-dose lactoferrin group (NZMP lactoferrin, New Zealand, 40 mg/kg BW/day), the high-dose lactoferrin group (80 mg/kg BW/day), the low-dose chromium group (CrCl3·6H2O, Sigma, Cr^+3 40 μg/kg BW/day), the high dose chromium group (Cr^+3 80 μg/kg BW/day), the low-dose lactoferrin+chromium group (lactoferrin 40 mg/kg BW/day+Cr^+3 40 μg/kg BW/day), and the high-dose lactoferrin+chromium group (lactoferrin 80 mg/kg BW/day+Cr^+3 80 μg/kg BW/day) (10 mice in each group). After supplementation for 7 weeks, the C57BL/6JNarl mice are sacrificed and their livers are harvested. Then, the level of hepatic triglycerides is analyzed. […] However, no significant difference between the other groups is found.

B1: Lactoferrin: NZMP lactoferrin, New Zealand; a glycoprotein that is capable of combining with metal ions (protein, UniProt P24627 20-708, looked up)
Lactotransferrin: APRKNVRWCTISQPEWFKCRRWQWRMKKLGAPSITCVRRAFALECIRAIAEKKADAVTLDGGMVFEAGRDPYKLRPVAAEIYGTKESPQTHYYAVAVVKKGSNFQLDQLQGRKSCHTGLGRSAGWIIPMGILRPYLSWTESLEPLQGAVAKFFSASCVPCIDRQAYPNLCQLCKGEGENQCACSSREPYFGYSGAFKCLQDGAGDVAFVKETTVFENLPEKADRDQYELLCLNNSRAPVDAFKECHLAQVPSHAVVARSVDGKEDLIWKLLSKAQEKFGKNKSRSFQLFGSPPGQRDLLFKDSALGFLRIPSKVDSALYLGSRYLTTLKNLRETAEEVKARYTRVVWCAVGPEEQKKCQQWSQQSGQNVTCATASTTDDCIVLVLKGEADALNLDGGYIYTAGKCGLVPVLAENRKSSKHSSLDCVLRPTEGYLAVAVVKKANEGLTWNSLKDKKSCHTAVDRTAGWNIPMGLIVNQTGSCAFDEFFSQSCAPGADPKSRLCALCAGDDQGLDKCVPNSKEKYYGYTGAFRCLAEDVGDVAFVKNDTVWENTNGESTADWAKNLNREDFRLLCLDGTRKPVTEAQSCHLAVAPNHAVVSRSDRAAHVKQVLLHQQALFGKNGKNCPDKFCLFKSETKNLLFNDNTECLAKLGGRPTYEEYLGTEYVTAIANLKKCSTSPLLEACAFLTR
- Hepatic triglycerides, High-dose (High-dose: lactoferrin 80 mg/kg BW/day and/or Cr+3 80 μg/kg BW/day): 18.1 ± 7.2 μ mol/g liver
- Hepatic triglycerides, Low-dose (Low-dose: lactoferrin 40 mg/kg BW/day and/or Cr+3 40 μg/kg BW/day): 18.4 ± 6.0 μ mol/g liver
